{
  "source": "paper PMC12990809",
  "assay_in_all_cases": "pulldown",
  "key": {"[1]": {"target": "T1, LmjF.25.0080 (Leishmania major) (UniProt Q4QA88)", "T1 sequence": "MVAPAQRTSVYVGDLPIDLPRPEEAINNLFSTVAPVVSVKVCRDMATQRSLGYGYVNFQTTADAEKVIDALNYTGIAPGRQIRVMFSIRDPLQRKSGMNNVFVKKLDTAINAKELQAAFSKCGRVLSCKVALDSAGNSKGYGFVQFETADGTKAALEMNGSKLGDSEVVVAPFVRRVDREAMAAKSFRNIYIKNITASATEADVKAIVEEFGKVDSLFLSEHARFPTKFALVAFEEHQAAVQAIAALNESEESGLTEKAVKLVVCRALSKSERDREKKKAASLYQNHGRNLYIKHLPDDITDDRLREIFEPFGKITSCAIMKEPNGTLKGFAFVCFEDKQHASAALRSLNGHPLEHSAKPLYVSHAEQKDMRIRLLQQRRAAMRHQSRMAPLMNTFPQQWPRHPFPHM", "settings": "20 nM protein, 1.5 uM RNA pool; 20 mM HEPES pH 7.8, 70 mM KCl, 10 mM NaCl, 10% glycerol, 2 mM DTT, 0.1 ug/uL BSA; 30 min, 4 C"}, "[2]": {"target": "T2, LmjF.25.0500 (Leishmania major) (UniProt Q4QA45)", "T2 sequence": "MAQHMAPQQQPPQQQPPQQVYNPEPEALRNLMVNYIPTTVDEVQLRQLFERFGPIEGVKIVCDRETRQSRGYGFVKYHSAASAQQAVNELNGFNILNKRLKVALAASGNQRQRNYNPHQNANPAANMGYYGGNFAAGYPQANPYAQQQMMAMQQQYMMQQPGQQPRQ", "settings": "20 nM protein, 1.5 uM RNA pool; 20 mM HEPES pH 7.8, 70 mM KCl, 10 mM NaCl, 10% glycerol, 2 mM DTT, 0.1 ug/uL BSA; 30 min, 4 C"}, "[3]": {"target": "hnrnpa0a (Danio rerio) (UniProt Q6NYB0)", "sequence (Q6NYB0 entry or part of it)": "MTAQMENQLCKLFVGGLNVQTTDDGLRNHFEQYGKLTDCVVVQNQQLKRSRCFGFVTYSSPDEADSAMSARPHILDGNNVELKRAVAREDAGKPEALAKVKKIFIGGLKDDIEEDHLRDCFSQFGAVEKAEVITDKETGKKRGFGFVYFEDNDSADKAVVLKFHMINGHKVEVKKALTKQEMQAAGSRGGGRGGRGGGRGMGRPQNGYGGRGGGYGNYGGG", "settings": "20 nM protein, 1.5 uM RNA pool; 20 mM HEPES pH 7.8, 70 mM KCl, 10 mM NaCl, 10% glycerol, 2 mM DTT, 0.1 ug/uL BSA; 30 min, 4 C"}, "[4]": {"target": "T3, PK27183.1 (Cannabis sativa) (UniProt A0A7J6I1V8)", "T3 sequence": "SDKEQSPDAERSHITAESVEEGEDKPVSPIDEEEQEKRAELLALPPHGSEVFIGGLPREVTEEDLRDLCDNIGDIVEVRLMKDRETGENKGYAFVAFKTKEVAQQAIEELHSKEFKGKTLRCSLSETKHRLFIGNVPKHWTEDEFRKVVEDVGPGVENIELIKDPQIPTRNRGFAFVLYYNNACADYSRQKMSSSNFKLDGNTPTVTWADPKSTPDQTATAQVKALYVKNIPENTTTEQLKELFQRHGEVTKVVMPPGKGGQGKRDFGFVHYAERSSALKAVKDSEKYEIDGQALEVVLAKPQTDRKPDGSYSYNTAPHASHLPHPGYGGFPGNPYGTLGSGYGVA", "settings": "20 nM protein, 1.5 uM RNA pool; 20 mM HEPES pH 7.8, 70 mM KCl, 10 mM NaCl, 10% glycerol, 2 mM DTT, 0.1 ug/uL BSA; 30 min, 4 C"}, "[5]": {"target": "T4, HRP1 (Saccharomyces cerevisiae) (UniProt Q99383)", "T4 sequence": "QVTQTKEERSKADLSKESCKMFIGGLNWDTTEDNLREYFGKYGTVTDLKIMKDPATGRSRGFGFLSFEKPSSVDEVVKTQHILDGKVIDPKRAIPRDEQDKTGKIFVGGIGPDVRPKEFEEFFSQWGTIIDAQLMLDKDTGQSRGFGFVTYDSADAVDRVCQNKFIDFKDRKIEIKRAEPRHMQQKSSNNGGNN", "settings": "20 nM protein, 1.5 uM RNA pool; 20 mM HEPES pH 7.8, 70 mM KCl, 10 mM NaCl, 10% glycerol, 2 mM DTT, 0.1 ug/uL BSA; 30 min, 4 C (protocol of this paper; not …); cited from earlier work"}, "[6]": {"target": "T5, CG1316 G229S (Drosophila melanogaster) (UniProt Q7JRD2)", "T5 sequence": "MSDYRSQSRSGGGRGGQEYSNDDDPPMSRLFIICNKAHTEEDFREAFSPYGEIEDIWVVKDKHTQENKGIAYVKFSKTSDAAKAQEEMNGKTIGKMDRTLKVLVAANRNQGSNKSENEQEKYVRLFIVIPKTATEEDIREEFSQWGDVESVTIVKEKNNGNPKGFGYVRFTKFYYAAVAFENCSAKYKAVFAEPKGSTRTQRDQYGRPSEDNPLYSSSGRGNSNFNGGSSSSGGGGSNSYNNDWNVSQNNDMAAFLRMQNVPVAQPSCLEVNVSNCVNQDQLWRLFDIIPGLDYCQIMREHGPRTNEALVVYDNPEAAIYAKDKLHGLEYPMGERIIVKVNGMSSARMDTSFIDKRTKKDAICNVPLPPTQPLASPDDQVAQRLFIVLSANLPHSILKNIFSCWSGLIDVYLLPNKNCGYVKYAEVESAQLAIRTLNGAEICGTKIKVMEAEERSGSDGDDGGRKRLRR", "settings": "20 nM protein, 1.5 uM RNA pool; 20 mM HEPES pH 7.8, 70 mM KCl, 10 mM NaCl, 10% glycerol, 2 mM DTT, 0.1 ug/uL BSA; 30 min, 4 C"}, "[7]": {"target": "T6, Hrb87F (Drosophila melanogaster) (UniProt P48810)", "T6 sequence": "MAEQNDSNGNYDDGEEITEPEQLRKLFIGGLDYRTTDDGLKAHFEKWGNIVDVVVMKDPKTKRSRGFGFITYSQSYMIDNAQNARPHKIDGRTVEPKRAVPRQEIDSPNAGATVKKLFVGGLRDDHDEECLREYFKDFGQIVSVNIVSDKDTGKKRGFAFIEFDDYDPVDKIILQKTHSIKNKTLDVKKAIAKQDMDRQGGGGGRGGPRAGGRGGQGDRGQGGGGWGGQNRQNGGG", "settings": "20 nM protein, 1.5 uM RNA pool; 20 mM HEPES pH 7.8, 70 mM KCl, 10 mM NaCl, 10% glycerol, 2 mM DTT, 0.1 ug/uL BSA; 30 min, 4 C (protocol of this paper; not …); cited from earlier work"}, "[8]": {"target": "e_gw1.13.00.297.1 (Ostreococcus tauri) (UniProt A0A096P8F1)", "sequence (A0A096P8F1 entry or part of it)": "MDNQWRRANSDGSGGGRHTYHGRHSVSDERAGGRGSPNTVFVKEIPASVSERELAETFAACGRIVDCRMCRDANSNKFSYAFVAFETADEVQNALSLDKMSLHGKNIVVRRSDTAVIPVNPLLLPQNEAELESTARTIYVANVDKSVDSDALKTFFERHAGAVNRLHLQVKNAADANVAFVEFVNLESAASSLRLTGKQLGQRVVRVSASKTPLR", "settings": "20 nM protein, 1.5 uM RNA pool; 20 mM HEPES pH 7.8, 70 mM KCl, 10 mM NaCl, 10% glycerol, 2 mM DTT, 0.1 ug/uL BSA; 30 min, 4 C"}, "[9]": {"target": "estExt_fgenesh1_pg.C_Chr_03.00010087 (Ostreococcus tauri) (UniProt A0A096P7J9)", "sequence (A0A096P7J9 entry or part of it)": "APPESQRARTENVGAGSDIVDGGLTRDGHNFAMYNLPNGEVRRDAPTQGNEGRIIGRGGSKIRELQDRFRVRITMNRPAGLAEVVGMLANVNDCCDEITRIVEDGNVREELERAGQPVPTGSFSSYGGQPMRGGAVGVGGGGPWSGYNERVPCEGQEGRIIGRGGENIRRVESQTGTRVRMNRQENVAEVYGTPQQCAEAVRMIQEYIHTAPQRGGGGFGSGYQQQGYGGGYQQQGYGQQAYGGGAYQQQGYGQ", "settings": "20 nM protein, 1.5 uM RNA pool; 20 mM HEPES pH 7.8, 70 mM KCl, 10 mM NaCl, 10% glycerol, 2 mM DTT, 0.1 ug/uL BSA; 30 min, 4 C"}},
  "data": [
    {"substance": "AGAAAA [RNAcompete motif RNCMPT00688]", "values": [
      {"measurement": "binding signal (z-score (mean of top ten 7-mers))", "setting": "[1]", "value": 9.16}
    ]},
    {"substance": "UAGUUU [RNAcompete motif RNCMPT00689]", "values": [
      {"measurement": "binding signal (z-score (mean of top ten 7-mers))", "setting": "[2]", "value": 11.6}
    ]},
    {"substance": "UAGGA [RNAcompete motif RNCMPT00677]", "values": [
      {"measurement": "binding signal (z-score (mean of top ten 7-mers))", "setting": "[3]", "value": 9.94}
    ]},
    {"substance": "AGACACA [RNAcompete motif RNCMPT00685]", "values": [
      {"measurement": "binding signal (z-score (mean of top ten 7-mers))", "setting": "[4]", "value": 13.3}
    ]},
    {"substance": "UAUGUA [RNAcompete motif RNCMPT00031]", "values": [
      {"measurement": "binding signal (z-score (mean of top ten 7-mers))", "setting": "[5]", "value": 23.4}
    ]},
    {"substance": "GACNGAC [RNAcompete motif RNCMPT00698]", "values": [
      {"measurement": "binding signal (z-score (mean of top ten 7-mers))", "setting": "[6]", "value": 10.1}
    ]},
    {"substance": "GGUAGGG [RNAcompete motif RNCMPT00029]", "values": [
      {"measurement": "binding signal (z-score (mean of top ten 7-mers))", "setting": "[7]", "value": 13.4}
    ]},
    {"substance": "AAUAAG [RNAcompete motif RNCMPT00681]", "values": [
      {"measurement": "binding signal (z-score (mean of top ten 7-mers))", "setting": "[8]", "value": 20.7}
    ]},
    {"substance": "ACGCGA [RNAcompete motif RNCMPT00694]", "values": [
      {"measurement": "binding signal (z-score (mean of top ten 7-mers))", "setting": "[9]", "value": 10.9}
    ]}
  ]
}
